In PMC12040651, “cAMP-independent Crp homolog adds to the multi-layer regulatory network in Porphyromonas gingivalis”:

Columns and labels:
[1] = biological target: Crp^Pg protein (Porphyromonas gingivalis A7436 Crp homolog, CRP/FNR superfamily) (Porphyromonas gingivalis A7436); experiment: cross-linking; 10 uM purified Crp^Pg in PBS, 30 min at room temperature, without or with 1 mM cAMP, then 0.2% formaldehyde for 1 h at 37°C; SDS-PAGE with CBB G-250 staining; monomer to dimer
CrpPg (Crp homolog) = biological target: T1, CrpPg (Crp homolog) (Porphyromonas gingivalis A7436, UniProt Q7MAW7 1-232); experiment: EMSA; conditions: protein: recombinant, tags: 6xHis-MBP N-terminal, removed with Factor Xa, chain copies: 2, blunt
T1 sequence: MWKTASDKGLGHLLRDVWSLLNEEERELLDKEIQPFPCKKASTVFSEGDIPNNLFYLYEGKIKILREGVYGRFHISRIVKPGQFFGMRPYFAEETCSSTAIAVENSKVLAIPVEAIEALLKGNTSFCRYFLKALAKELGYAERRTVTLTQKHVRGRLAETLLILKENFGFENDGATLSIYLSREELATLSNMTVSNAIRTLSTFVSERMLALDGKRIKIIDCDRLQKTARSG

Molecule: Crp^Pg protein (Porphyromonas gingivalis A7436 Crp homolog, CRP/FNR superfamily) (natural protein)
- stoichiometry N [1]: 2

B1: crpPg promoter fragment 4 (dsDNA)
DNA 1: CTCATAATAATAGTTCTACGGCCTTTCTTCCTCGTTGTACGGATTTGAGCAAATAGACATTCTCTGAACACTTATATGTGGAAGACAG
DNA 2: CTGTCTTCCACATATAAGTGTTCAGAGAATGTCTATTTGCTCAAATCCGTACAACGAGGAAGAAAGGCCGTAGAACTATTATTATGAG
- binding result (CrpPg (Crp homolog); label: 5' biotin via PBM_0206 (probe)): binds

B2: mfa promoter fragment 5 (dsDNA)
DNA 1: ATTTAATATTAATCCTTTTAAACATTTGGCTTATGAAGTTAAACAAAATGTTTTTGGTCGGAGCATTGCTCTCATTGGGCT
DNA 2: AGCCCAATGAGAGCAATGCTCCGACCAAAAACATTTTGTTTAACTTCATAAGCCAAATGTTTAAAAGGATTAATATTAAAT
- binding result (CrpPg (Crp homolog); label: 5' biotin via PBM_0217 (probe)): binds
